Measurements published in PMC2991585.

Biological target: actin filament (barbed end) (UniProt P68135)
Experiment: seeded pyrene-actin polymerization

Substance: CPαβ(ΔC34) (from UniProt P47753 1-286; P47757-2 1-272) (complex)
- Kd: 33.2 nM
